Test results: PMC10442075

Tests used:
[1] = target: catalytic subunit of mouse PKA (mouse) (UniProt P05132)
[2] = target: catalytic subunit of mouse PKA (mouse) (UniProt P05132); remark: listed apart in the source

unphosphorylated GSK3β (Glycogen Synthase Kinase 3β), sequence (P49841 whole entry): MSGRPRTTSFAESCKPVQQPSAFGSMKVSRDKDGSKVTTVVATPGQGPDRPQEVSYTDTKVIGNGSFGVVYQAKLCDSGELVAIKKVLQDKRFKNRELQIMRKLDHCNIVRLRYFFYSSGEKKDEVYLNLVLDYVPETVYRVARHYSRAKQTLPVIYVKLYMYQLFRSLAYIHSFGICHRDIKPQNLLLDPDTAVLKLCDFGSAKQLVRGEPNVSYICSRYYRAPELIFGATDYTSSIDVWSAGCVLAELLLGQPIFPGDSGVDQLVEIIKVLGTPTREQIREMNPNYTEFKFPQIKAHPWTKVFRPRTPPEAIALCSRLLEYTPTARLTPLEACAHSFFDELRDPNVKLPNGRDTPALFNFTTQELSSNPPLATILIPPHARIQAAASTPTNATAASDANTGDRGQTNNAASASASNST

**Q.** With “unphosphorylated GSK3β (Glycogen Synthase Kinase 3β) (from UniProt P49841 1-420) (enzyme)” as the substance, how does the fold increase in KM for PKA phosphorylation of GSK3β at Ser9 (20 nM PKA) on addition of 500 nM full-length Axin [1] read?
**A.** The fold increase in KM for PKA phosphorylation of GSK3β at Ser9 (20 nM PKA) on addition of 500 nM full-length Axin was 4 fold.

**Q.** And the fold increase in KM for PKA phosphorylation of GSK3β at Ser9 on addition of the Axin (381-407) peptide [2]?
**A.** The fold increase in KM for PKA phosphorylation of GSK3β at Ser9 on addition of the Axin (381-407) peptide was 7 fold.
